From publication PMC9712102
pKd: −log10 of the molar value.

Experiments:
[1] = biological target: Gp57, purified (phage SECΦ27); assay: SEC-MALS; co-purified CapRel^SJ46–Gp57 complex at 5 mg ml^−1; 50 mM HEPES pH 7.5, 500 mM KCl, 500 mM NaCl, 10 mM MgCl2, 1 mM TCEP, 0.002% mellitic acid
[2] = biological target: Gp57 (L114P I115F), purified (phage SECΦ27); assay: ITC; CapRel^SJ46 (or variant) at 150 μM in the syringe titrated into Gp57 (or variant) at 10 μM in the cell; 25 °C; 50 mM HEPES pH 7.5, 500 mM KCl, 500 mM NaCl, 150 mM imidazole, 10 mM MgCl2, 1 mM TCEP, 0.002% mellitic acid
[3] = biological target: Gp57, purified (phage SECΦ27); assay: as above
CapRel^SJ46–Flag = assay: immunoprecipitation followed by mass spectrometry
[4] = biological target: CapRel^SJ46, purified full-length; assay: ITC; settings: CapRelSJ46 titrated into Gp57(L114P I115F)

Q: How did the stoichiometry N [1] turn out when “CapRel^SJ46(Y155A), co-purified with Gp57 (natural protein)” was run?
A: 1

Q: For “CapRel^SJ46, purified full-length (natural protein)”, which fold decrease in affinity against wild-type Gp57 [2] is on record?
A: > 60 fold

Q: And the stoichiometry N [3]?
A: 1

Q: Which results are given for “Gp57, major capsid protein of SECΦ27, made by wild-type phage during infection L114P”?
A: response (SC(Gp57)/SC(CapRelSJ46)) (CapRel^SJ46–Flag; 40 min after infection, bar = mean of 2 biological replicates, parent: est. 0.33, read off a plot): 0.07; response (spectral counts (SC)) (CapRel^SJ46–Flag; replicate1, 15 min after infection, CapRelSJ46 SC 276 (L114P mutant), 286 (WT), parent: 12): 0; response (spectral counts (SC)) (CapRel^SJ46–Flag; replicate1, 40 min after infection, CapRelSJ46 SC 251 (L114P mutant), 217 (WT), parent: 64): 25; response (spectral counts (SC)) (CapRel^SJ46–Flag; replicate2, 15 min after infection, CapRelSJ46 SC 145 (L114P mutant), 161 (WT), parent: 0): 0; response (spectral counts (SC)) (CapRel^SJ46–Flag; replicate2, 40 min after infection, CapRelSJ46 SC 156 (L114P mutant), 138 (WT), parent: 52): 6

Q: Gp57, purified L114P; I115F was tested. Which pKd [4] did it give?
A: 4.63
